Reference: patent US10280205B2, “Method for treating cancer with an activated T lymphocyte that selectively recognizes a cancer cell consisting of specific peptide” (immatics biotechnologies GmbH, priority 2015, dated 2019)

Experiments:
CD8+ T cells = assay: In vitro T-cell priming assay with aAPCs loaded with peptide/MHC complexes and anti-CD28, multimer staining readout (in vitro immunogenicity); format: cell-based, human; details: for Wells positive [%]: HLA-A*02 restricted peptides; for donors (positive donors, in vitro immunogenicity) / wells (positive wells, in vitro immunogenicity): HLA class I peptides; for donors (positive donors, in vitro immunogenicity): percentage of positive donors among evaluable; for wells (positive wells, in vitro immunogenicity): percentage of positive wells
Source text: In order to obtain information regarding the immunogenicity of the TUMAPs of the present invention, the inventors performed investigations using an in vitro T-cell priming assay based on repeated stimulations of CD8+ T cells with artificial antigen presenting cells (aAPCs) loaded with peptide/MHC complexes and anti-CD28 antibody.
In order to perform in vitro stimulations by artificial antigen presenting cells loaded with peptide-MHC complex (pMHC) and anti-CD28 antibody, the inventors first isolated CD8+ T cells from fresh HLA-A*02 leukapheresis products via positive selection using CD8 microbeads (Miltenyi Biotec, Bergisch-Gladbach, Germany) of healthy donors obtained from the University clinics Mannheim, Germany, after informed consent.
PBMCs and isolated CD8+ lymphocytes were incubated in T-cell medium (TCM) until use consisting of RPMI-Glutamax (Invitrogen, Karlsruhe, Germany) supplemented with 10% heat inactivated human AB serum (PAN-Biotech, Aidenbach, Germany), 100 U/ml Penicillin/100 μg/ml Streptomycin (Cambrex, Cologne, Germany), 1 mM sodium pyruvate (CC Pro, Oberdorla, Germany), 20 μg/ml Gentamycin (Cambrex). 2.5 ng/ml IL-7 (PromoCell, Heidelberg, Germany) and 10 U/ml IL-2 (Novartis Pharma, Nurnberg, Germany) were also added to the TCM at this step.
Generation of pMHC/anti-CD28 coated beads, T-cell stimulations and readout was performed in a highly defined in vitro system using four different pMHC molecules per stimulation condition and 8 different pMHC molecules per readout condition.
The purified co-stimulatory mouse IgG2a anti human CD28 Ab 9.3 (Jung et al., 1987) was chemically biotinylated using Sulfo-N-hydroxysuccinimidobiotin as recommended by the manufacturer (Perbio, Bonn, Germany). Beads used were 5.6 μm diameter streptavidin coated polystyrene particles (Bangs Laboratories, Illinois, USA).
pMHC used for positive and negative control stimulations were A*0201/MLA-001 (peptide […] (SEQ ID NO. 664) from modified Melan-A/MART-1) and A*0201/DDX5-001 ([…] from DDX5, SEQ ID NO. 665), respectively.
800.000 beads/200 μl were coated in 96-well plates in the presence of 4×12.5 ng different biotin-pMHC, washed and 600 ng biotin anti-CD28 were added subsequently in a volume of 200 μl. Stimulations were initiated in 96-well plates by co-incubating […] CD8+ T cells with 2×10^5 washed coated beads in 200 μl TCM supplemented with 5 ng/ml IL-12 (PromoCell) for 3 days at 37° C. Half of the medium was then exchanged by fresh TCM supplemented with 80 U/ml IL-2 and incubating was continued for 4 days at 37° C. This stimulation cycle was performed for a total of three times. For the pMHC multimer readout using 8 different pMHC molecules per condition, a two-dimensional combinatorial coding approach was used as previously described (Andersen et al., 2012) with minor modifications encompassing coupling to 5 different fluorochromes. Finally, multimeric analyses were performed by staining the cells with Live/dead near IR dye (Invitrogen, Karlsruhe, Germany), CD8-FITC antibody clone SK1 (BD, Heidelberg, Germany) and fluorescent pMHC multimers. For analysis, a BD LSRII SORP cytometer equipped with appropriate lasers and filters was used. Peptide specific cells were calculated as percentage of total CD8+ cells. Evaluation of multimeric analysis was done using the FlowJo software (Tree Star, Oreg., USA). In vitro priming of specific multimer+ CD8+ lymphocytes was detected by comparing to negative control stimulations.
Exemplary flow cytometry results after TUMAP-specific multimer staining for two peptides of the invention are shown in FIG. 3 together with corresponding negative controls.

HLA-A*02:01 = HLA-A*02:01 (Homo sapiens, UniProt P04439, D140Y/D185E/D98H/E176V/E277Q/G131W/G231S/I119V/I121R/I166T/I218V/L300P/L318F/N151K/N90K/P208A/P217A/Q86G/Q94H/R138H/R169H/T345S); assay: MHC binding assay: UV-ligand exchange with beta2m ELISA (exchange yield); details: binding to HLA-A*02:01, β2m ELISA
Procedure, shortened: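 Peptide–HLA-A*02:01 complexes formed by UV-induced exchange of a photocleavable ligand for the test peptide. Exchange products diluted 100-fold and captured on streptavidin-coated plates. Stabilized complexes detected with HRP anti-β2m (1 h, 37° C.) and TMB, A450; exchange yield reported.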

Row | Substance | Peptide exchange (MHC class I binding score, peptide exchange yield) (HLA-A*02:01) | Wells positive [%] (CD8+ T cells) | donors (positive donors, in vitro immunogenicity) (CD8+ T cells) | wells (positive wells, in vitro immunogenicity) (CD8+ T cells)
1 | 8 (FTLGNVVGMYL; listed as Homo sapiens) [compound 8] | “++++” (≥75% = ++++) | “+” (<20% = +) |  | 
2 | 118 (KLIDNNINV; listed as Homo sapiens) [compound 118] | “+++” (≥50 = +++) | “+” (<20% = +) |  | 
3 | 141 (YLDFSNNRL; listed as Homo sapiens) [compound 141] | “++” (≥20% = ++) | “+” (<20% = +) |  | 
4 | 166 (YLNHLEPPV; listed as Homo sapiens) [compound 166] | “+++” (≥50 = +++) | “++++” (>=70% = ++++) |  | 
5 | 652 (TLWYRAPEV; listed as Homo sapiens) [compound 652] |  |  | ++++ (>=70% = ++++) | +++ (50%-69% = +++)
6 | 143 (LLLDITPEI; listed as Homo sapiens) [compound 143] | “++++” (≥75% = ++++) | “+” (<20% = +) |  | 
7 | 113 (GLLPTPLFGV; listed as Homo sapiens) [compound 113] | “+++” (≥50 = +++) | “+” (<20% = +) |  | 
8 | 663 (KIQEMQHFL; listed as Homo sapiens) [compound 663] |  |  | +++ (50%-69% = +++) | + (<20% = +)
9 | 2 (SLLEADPFL; listed as Homo sapiens) [compound 2] | “+++” (≥50 = +++) | “+” (<20% = +) |  | 
10 | 48 (ALAELYEDEV; listed as Homo sapiens) [compound 48] | “+++” (≥50 = +++) | “+” (<20% = +) |  | 
11 | 60 (SLTIDGIYYV; listed as Homo sapiens) [compound 60] | “++++” (≥75% = ++++) | “++++” (>=70% = ++++) |  | 
12 | 662 (KIQEILTQV; listed as Homo sapiens) [compound 662] |  |  | +++ (50%-69% = +++) | + (<20% = +)
13 | 3 (SLASKLTTL; listed as Homo sapiens) [compound 3] | “++++” (≥75% = ++++) | “+” (<20% = +) |  | 
14 | 79 (SLFIGEKAVLL; listed as Homo sapiens) [compound 79] | “+++” (≥50 = +++) | “+” (<20% = +) |  | 
15 | 659 (ILFPDIIARA; listed as Homo sapiens) [compound 659] |  |  | +++ (50%-69% = +++) | + (<20% = +)
16 | 36 (YVLEDLEVTV; listed as Homo sapiens) [compound 36] | “++” (≥20% = ++) | “+” (<20% = +) |  | 
17 | 11 (KIFEMLEGV; listed as Homo sapiens) [compound 11] | “+++” (≥50 = +++) | “+” (<20% = +) |  | 
18 | 150 (RLWEEGEELEL; listed as Homo sapiens) [compound 150] | “+++” (≥50 = +++) | “+” (<20% = +) |  | 
19 | 648 (LLWGNAIFL; listed as Homo sapiens) [compound 648] |  |  | +++ (50%-69% = +++) | ++ (20%-49% = ++)
20 | 97 (SLINGSFLV; listed as Homo sapiens) [compound 97] | “+++” (≥50 = +++) |  |  | 
21 | 154 (ALDDGTPAL; listed as Homo sapiens) [compound 154] | “++” (≥20% = ++) |  |  | 
22 | 191 (LLQEGQALEYV; listed as Homo sapiens) [compound 191] | “++” (≥20% = ++) |  |  | 
23 | 109 (IILSILEQA; listed as Homo sapiens) [compound 109] | “++++” (≥75% = ++++) |  |  | 
24 | 172 (VLYSYTIITV; listed as Homo sapiens) [compound 172] | “++” (≥20% = ++) |  |  | 

Now from value to substance, other results behind:

Row | Peptide exchange (MHC class I binding score, peptide exchange yield) (HLA-A*02:01) | Substance | Wells positive [%] (CD8+ T cells) | donors (positive donors, in vitro immunogenicity) (CD8+ T cells) | wells (positive wells, in vitro immunogenicity) (CD8+ T cells)
25 | “+++” (≥50 = +++) | 199 (ALQDVPLSSV; listed as Homo sapiens) [compound 199] | “+” (<20% = +) |  | 
26 | “++++” (≥75% = ++++) | 460 (AMLEKNYKL; listed as Homo sapiens) [compound 460] | “+” (<20% = +) |  | 
27 | “++” (≥20% = ++) | 319 (SLEPQIQPV; listed as Homo sapiens) [compound 319] | “+” (<20% = +) |  | 
28 | “++” (≥20% = ++) | 499 (KIFDIDEAEEGV; listed as Homo sapiens) [compound 499] | “+” (<20% = +) |  | 
29 | “+++” (≥50 = +++) | 443 (GLWEIENNPTV; listed as Homo sapiens) [compound 443] | “+” (<20% = +) |  | 
30 | “++” (≥20% = ++) | 603 (FLIEPEHVNTV; listed as Homo sapiens) [compound 603] | “+” (<20% = +) |  | 
31 | “+++” (≥50 = +++) | 283 (ALYIGDGYVIHLA; listed as Homo sapiens) [compound 283] |  | +++ (50%-69% = +++) | + (<20% = +)
32 | “+++” (≥50 = +++) | 194 (ALPLFVITV; listed as Homo sapiens) [compound 194] |  |  | 
33 | “+++” (≥50 = +++) | 517 (LLMPIPEGLTL; listed as Homo sapiens) [compound 517] |  |  | 
34 | “++” (≥20% = ++) | 253 (GLDAATATV; listed as Homo sapiens) [compound 253] |  |  | 
35 | “+++” (≥50 = +++) | 192 (KMLDGASFTL; listed as Homo sapiens) [compound 192] |  |  | 
36 | “+++” (≥50 = +++) | 245 (SMIDDLLGV; listed as Homo sapiens) [compound 245] |  |  | 
37 | “+++” (≥50 = +++) | 308 (SQYSGQLHEV; listed as Homo sapiens) [compound 308] |  |  | 
38 | “++” (≥20% = ++) | 229 (RLPGPLGTV; listed as Homo sapiens) [compound 229] |  |  | 
39 | “+++” (≥50 = +++) | 200 (LLFGSVQEV; listed as Homo sapiens) [compound 200] |  |  | 
40 | “+++” (≥50 = +++) | 286 (YLFPGIPEL; listed as Homo sapiens) [compound 286] |  |  | 
41 | “+++” (≥50 = +++) | 407 (YLMDLINFL; listed as Homo sapiens) [compound 407] |  |  | 
